± gives the standard deviation of the averaged measurements.
Tested on: Saccharomyces cerevisiae
Assay: protein stability index of tFT-peptide fusion (C-terminal peptide) (PSI (0-1 scale)); higher = more stable (slower turnover)
Settings: genetic background: wild type; temperature: 30 C
Method: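 Multiplexed protein stability (MPS) profiling in S. cerevisiae. Random 12-aa peptides (tFT-X12 library) are fused to the C-terminus of a sfGFP-mCherry tandem fluorescent timer, after mCherry and a GGGS linker. Cells are FACS-sorted into 8 mCherry/sfGFP bins and deep-sequenced. The protein stability index (PSI) is the read-weighted bin average, scaled from 0 (unstable) to 1 (stable). Only peptides with >10 reads are reported; cells were grown at 30 °C in SC-His with glucose.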
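Note: PSI is a weighted mean of sequencing reads over stability bins, variants kept only with over 10 reads, mCherry proximal and sfGFP distal, peptide attached via GGGS linker.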

Sequence	protein stability index
GYSFWSCVAFFS	0.628 ± 0.0068
GYSPLHPILLGL	0.577 ± 0.013
HAEREDTESQTR	0.714 ± 0.05
HAKVFLMGCSYV	0.692 ± 0.072
HALSVDPAFKQS	0.66 ± 0.05
HATPPPLPSPPL	0.71976 ± 0.0003
HCLLPLTTRRGR	0.7 ± 0.026
HDAKIGTSTCWV	0.654 ± 0.024
HDGPYPALLATK	0.606 ± 0.069
HDHRTLMRQPTR	0.697 ± 0.037
HDMTGARKTHIA	0.676 ± 0.023
HDRIHWDLDLSE	0.617 ± 0.041
HEGHVWGIRGTG	0.683 ± 0.11
HEKTGNNHKRGH	0.628 ± 0.19
HERPVVLYGCTS	0.637 ± 0.02
HFIDFVVVSFSI	0.548 ± 0.095
HFSLCSNRSNPP	0.646 ± 0.015
HFSTSFYSSAFR	0.631 ± 0.026
HGAEAWPDVGPG	0.639 ± 0.021
HGGEPHPSFGFS	0.697 ± 0.062
HGIGRDTSEHGR	0.645 ± 0.025
HGLGSWGTFLGV	0.655 ± 0.021
HGPGGFRAGTGE	0.724 ± 0.027
HGRSGGGKGAER	0.674 ± 0.038
HGSDLSILRIEI	0.722 ± 0.07

Sequence	protein stability index
HHCGGRVLGAGG	0.7073 ± 0.0056
HHPTTQRLSVIH	0.742 ± 0.042
HHRRRRTTDVSL	0.75 ± 0.049
HIEGRKHKDVAM	0.668 ± 0.062
HKVETHQIIQIK	0.726 ± 0.043
HLFAISGGKERI	0.6966 ± 0.0039
HLFVCGNGVSAT	0.684 ± 0.029
HLGHPSSRPSCL	0.72 ± 0.057
HLGQPRPSCPLF	0.662 ± 0.088
HLLLLDLTRPIL	0.745 ± 0.061
HLLRGSSPDRYV	0.737 ± 0.019
HLRIAHTPDSPR	0.703 ± 0.0082
HLSSPPSLLPPP	0.657 ± 0.05
HLSWFSPFFASG	0.772 ± 0.018
HLVPYVVKHLVP	0.6785 ± 0.0062
HLWAPRQNTIRY	0.649 ± 0.091
HMRPSTRLMPAG	0.593 ± 0.01
HNGYLKRIKISR	0.707 ± 0.085
HNSRTVPISVSV	0.528 ± 0.038
HNVLVYCGCALG	0.6032 ± 0.0036
HPAALTPVPALH	0.661 ± 0.036
HPFSLGSLVASW	0.6412 ± 0.0027
HPISLSYPSPFV	0.665 ± 0.13
HPPAFSAKTFPS	0.683 ± 0.043
HPPPPRLPPRPP	0.63 ± 0.02

Sequence	protein stability index
HPPRPPPRSPPP	0.656 ± 0.1
HPPSLPPLPPPL	0.727 ± 0.054
HPPSPPSRVSPS	0.594 ± 0.032
HPPTCTTVLPTL	0.579 ± 0.023
HPTDPPFRNTTA	0.6996 ± 0.0043
HPTLPSLQVSPS	0.689 ± 0.031
HQLSQYEGARTL	0.733 ± 0.064
HQRIKLMPEVWS	0.689 ± 0.056
HRAPACEHDIKK	0.705 ± 0.015
HRKVCARHNWEE	0.673 ± 0.046
HRLQGQGAWYVT	0.643 ± 0.061
HRPGYLTSSASD	0.65 ± 0.062
HRPPPPPSPSHL	0.686 ± 0.01
HRQAFSAVPCIH	0.588 ± 0.042
HRSHVRHSFPNP	0.703 ± 0.038
HRTSVRIPIPPI	0.683 ± 0.012
HRWCLADYVEVG	0.773 ± 0.063
HRWSRGIDATGV	0.665 ± 0.083
HSCPLLLAPPPS	0.608 ± 0.058
HSCYGHIRVSFC	0.705 ± 0.0098
HSGAPFPPDSPR	0.783 ± 0.16
HSINNVITNNTE	0.678 ± 0.017
HSSLHLTRALCL	0.677 ± 0.043
HSSRSPPPSPYA	0.709 ± 0.042
HSSSASPPISSF	0.657 ± 0.041

Sequence	protein stability index
HSTEKGIMLNEY	0.704 ± 0.19
HSTESHHQLDNQ	0.649 ± 0.026
HSTPPSPAPPTA	0.675 ± 0.062
HSVVANECHQGQ	0.766 ± 0.11
HTAITSGYSRGL	0.633 ± 0.049
HTGTCSVLPHTL	0.663 ± 0.052
HTLQDNHRLPRA	0.6058 ± 0.0029
HTPRLRRMRDYH	0.658 ± 0.087
HTRIGDGSRLLA	0.72666 ± 0.00065
HVHLHSTTAPPP	0.695 ± 0.015
HVTHPGCTLQLR	0.707 ± 0.071
HWLGCDESRGWV	0.668 ± 0.037
HYFRSIFLFVVR	0.506 ± 0.017
HYGQRKKEFRLT	0.73 ± 0.0075
HYWTTENDWPHG	0.705 ± 0.025
IADLGDLTKVTL	0.693 ± 0.019
IALACPGGSYIV	0.6739 ± 0.0024
IALTSVRIPSSP	0.678 ± 0.047
IARSVLRIGVWG	0.612 ± 0.045
IASASGAQAGAR	0.636 ± 0.017
ICAPSPSPAFTF	0.689 ± 0.0086
ICMGSLLYVGPC	0.5515 ± 0.0034
ICVYGGRKISPG	0.6877 ± 0.00097

Reference: the supplement of paper PMC10724198
